Laboratory results taken from paper PMC9813914, “Structural Basis for a Cork-Up Mechanism of the Intra-Molecular Mesaconyl-CoA Transferase” (Biochemistry, 2022).

How the values were obtained:
[1] = substrate: C/C(=C\C(=O)O)C(=O)SCCNC(=O)CCNC(=O)[C@H](O)C(C)(C)COP(=O)(O)OP(=O)(O)OC[C@H]1O[C@@H](n2cnc3c(N)ncnc32)[C@H](O)[C@@H]1OP(=O)(O)O; test: purified protein; type: biochemical, Chloroflexus aurantiacus; settings: 200 mM HEPES/KOH pH 8.0, 55 °C, 22 nM Mct, intra-molecular CoA transfer C1 to C4
[2] = substrate: C/C(=C\C(=O)SCCNC(=O)CCNC(=O)[C@H](O)C(C)(C)COP(=O)(O)OP(=O)(O)OC[C@H]1O[C@@H](n2cnc3c(N)ncnc32)[C@H](O)[C@@H]1OP(=O)(O)O)C(=O)O; test: purified protein; type: biochemical, Chloroflexus aurantiacus; settings: 200 mM HEPES/KOH pH 8.0, 55 °C, 22 nM Mct, intra-molecular CoA transfer C4 to C1

B1: Mct (mesaconyl-CoA transferase; mesaconyl-C1:C4-CoA CoA transferase) (Chloroflexus aurantiacus J-10-fl) (protein)
chain: MKGILHGLRVVEGSAFVAAPLGGMTLAQLGADVIRFDPIGGGLDYKRWPVTLDGKHSLFWAGLNKGKRSIAIDIRHPRGQELLTQLICAPGEHAGLFITNFPARGWLSYDELKRHRADLIMVNLVGRRDGGSEVDYTVNPQLGLPFMTGPVTTPDVVNHVLPAWDIVTGQMIALGLLAAERHRRLTGEGQLVKIALKDVGLAMIGHLGMIAEVMINDTDRPRQGNYLYGAFGRDFETLDGKRVMVVGLTDLQWKALGKATGLTDAFNALGARLGLNMDEEGDRFRARHEIAALLEPWFHARTLAEVRRIFEQHRVTWAPYRTVREAIAQDPDCSTDNPMFAMVEQPGIGSYLMPGSPLDFTAVPRLPVQPAPRLGEHTDEILLEVLGLSEAEVGRLHDEGIVAGPDRAA
notes: intertwined homodimer
- Km [1]: 160 µM
- kcat [1]: 370 s⁻¹
- Km [2]: 200 µM
- kcat [2]: 320 s⁻¹
